Measured values reported in PMC7268246, “Purification and immobilization of engineered glucose dehydrogenase: a new approach to producing gluconic acid from breadwaste” (Biotechnology for Biofuels, 2020).

Biological target: the molecule itself
Test: SEC; Superdex Increase 10x300GL column on an ÄKTA Pure system; Ni-NTA purified GDH dialysed into 100 mM HEPES pH 7.4, 200 mM MgCl2, 10% glycerol; run in one buffer only

B1: recombinant glucose dehydrogenase (GDH) from Sulfolobus solfataricus (enzyme, UniProt O93715 1-366, looked up)
chain: MKAIIVKPPNAGVQVKDVDEKKLDSYGKIKIRTIYNGICGTDREIVNGKLTLSTLPKGKDFLVLGHEAIGVVEESYHGFSQGDLVMPVNRRGCGICRNCLVGRPDFCETGEFGEAGIHKMDGFMREWWYDDPKYLVKIPKSIEDIGILAQPLADIEKSIEEILEVQKRVPVWTCDDGTLNCRKVLVVGTGPIGVLFTLLFRTYGLEVWMANRREPTEVEQTVIEETKTNYYNSSNGYDKLKDSVGKFDVIIDATGADVNILGNVIPLLGRNGVLGLFGFSTSGSVPLDYKTLQEIVHTNKTIIGLVNGQKPHFQQAVVHLASWKTLYPKAAKMLITKTVSINDEKELLKVLREKEHGEIKIRILWE
notes: glucose dehydrogenase (GDH) of Sulfolobus solfataricus; the discussion gives the monomer as 366 amino acid residues (41 kDa); the tagged construct has 43 kDa; also called engineered GDH; recombinant GDH; source: E. coli BL21-DE3 (pET30a), lysate heat treated at 70 °C, purified (Ni-NTA, dialysis, size exclusion chromatography)
Q: Which “stoichiometry N” value does the source give for B1 here?
A: 4
